Test results published in article PMC6246682, “Structural Basis of Tau Interaction With BIN1 and Regulation by Tau Phosphorylation” (Frontiers in Molecular Neuroscience, 2018).

Molecular target: T1, BIN1 SH3 domain (UniProt O00499 513-593)
T1 construct: C-terminal SH3 domain of bridging integrator-1 (BIN1, amphiphysin 2); printed residues E556, E557, W562, F588 fit the 593-residue BIN1 isoform 1; Used 15N-labelled in the titrations and relaxation experiments; Construct limits, host and tags are in Malki et al., 2017; PDB 5i22 is a cited NMR structure of BIN1 SH3 in a complex, used as the starting point of the docking; also called SH3 domain of …
T1 sequence: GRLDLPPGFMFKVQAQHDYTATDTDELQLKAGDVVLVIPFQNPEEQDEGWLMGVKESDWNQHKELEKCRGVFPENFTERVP
Assay: NMR titration; 70 μM 15N-BIN1 SH3 titrated with unlabeled Tau (210–240) peptides (35 to 840 μM); 1H,15N HSQC chemical shift changes; 50 mM phosphate buffer pH 7.3, 20°C; Kd averaged over 7 resonances
Conditions: both partners purified

B1: Tau (210–240) peptide with K224 and K225 mutated into alanines (peptide, UniProt P10636-8 210-240, looked up)
peptide: SRTPSLPTPPTREPAAVAVVRTPPKSPSSAK
notes: Tau residues 210-240 with K224A and K225A; probably as m2; also called the mutated peptide
In the case of B1, the Kd is reported as 429 ± 94 µM.
